Experimental data taken from IntAct's records for PubMed 24141787.

B1: Partner and localizer of BRCA2 (Homo sapiens), Q86YC2 (parent)
chain: MDEPPGKPLSCEEKEKLKEKLAFLKREYSKTLARLQRAQRAEKIKHSIKKTVEEQDCLSQQDLSPQLKHSEPKNKICVYDKLHIKTHLDEETGEKTSITLDVGPESFNPGDGPGGLPIQRTDDTQEHFPHRVSDPSGEQKQKLPSRRKKQQKRTFISQERDCVFGTDSLRLSGKRLKEQEEISSKNPARSPVTEIRTHLLSLKSELPDSPEPVTEINEDSVLIPPTAQPEKGVDTFLRRPNFTRATTVPLQTLSDSGSSQHLEHIPPKGSSELTTHDLKNIRFTSPVSLEAQGKKMTVSTDNLLVNKAISKSGQLPTSSNLEANISCSLNELTYNNLPANENQNLKEQNQTEKSLKSPSDTLDGRNENLQESEILSQPKSLSLEATSPLSAEKHSCTVPEGLLFPAEYYVRTTRSMSNCQRKVAVEAVIQSHLDVKKKGFKNKNKDASKNLNLSNEETDQSEIRMSGTCTGQPSSRTSQKLLSLTKVSSPAGPTEDNDLSRKAVAQAPGRRYTGKRKSACTPASDHCEPLLPTSSLSIVNRSKEEVTSHKYQHEKLFIQVKGKKSRHQKEDSLSWSNSAYLSLDDDAFTAPFHRDGMLSLKQLLSFLSITDFQLPDEDFGPLKLEKVKSCSEKPVEPFESKMFGERHLKEGSCIFPEELSPKRMDTEMEDLEEDLIVLPGKSHPKRPNSQSQHTKTGLSSSILLYTPLNTVAPDDNDRPTTDMCSPAFPILGTTPAFGPQGSYEKASTEVAGRTCCTPQLAHLKDSVCLASDTKQFDSSGSPAKPHTTLQVSGRQGQPTCDCDSVPPGTPPPIESFTFKENQLCRNTCQELHKHSVEQTETAELPASDSINPGNLQLVSELKNPSGSCSVDVSAMFWERAGCKEPCIITACEDVVSLWKALDAWQWEKLYTWHFAEVPVLQIVPVPDVYNLVCVALGNLEIREIRALFCSSDDESEKQVLLKSGNIKAVLGLTKRRLVSSSGTLSDQQVEVMTFAEDGGGKENQFLMPPEETILTFAEVQGMQEALLGTTIMNNIVIWNLKTGQLLKKMHIDDSYQASVCHKAYSEMGLLFIVLSHPCAKESESLRSPVFQLIVINPKTTLSVGVMLYCLPPGQAGRFLEGDVKDHCAAAILTSGTIAIWDLLLGQCTALLPPVSDQHWSFVKWSGTDSHLLAGQKDGNIFVYHYS
partner: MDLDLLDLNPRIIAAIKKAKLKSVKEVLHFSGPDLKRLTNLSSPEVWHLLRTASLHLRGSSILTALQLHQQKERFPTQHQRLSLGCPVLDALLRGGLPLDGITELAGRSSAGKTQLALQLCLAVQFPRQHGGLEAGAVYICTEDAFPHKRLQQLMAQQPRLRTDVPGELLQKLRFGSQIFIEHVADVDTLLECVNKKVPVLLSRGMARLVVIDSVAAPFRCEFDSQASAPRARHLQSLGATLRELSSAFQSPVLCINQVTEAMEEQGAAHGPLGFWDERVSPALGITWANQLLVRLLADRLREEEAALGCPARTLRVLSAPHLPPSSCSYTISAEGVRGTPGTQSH
B2: Partner and localizer of BRCA2 (Homo sapiens), Q86YC2 (parent)
chain: B1 chain
B3: Partner and localizer of BRCA2 (Homo sapiens), Q86YC2 (parent)
chain: B1 chain
partner: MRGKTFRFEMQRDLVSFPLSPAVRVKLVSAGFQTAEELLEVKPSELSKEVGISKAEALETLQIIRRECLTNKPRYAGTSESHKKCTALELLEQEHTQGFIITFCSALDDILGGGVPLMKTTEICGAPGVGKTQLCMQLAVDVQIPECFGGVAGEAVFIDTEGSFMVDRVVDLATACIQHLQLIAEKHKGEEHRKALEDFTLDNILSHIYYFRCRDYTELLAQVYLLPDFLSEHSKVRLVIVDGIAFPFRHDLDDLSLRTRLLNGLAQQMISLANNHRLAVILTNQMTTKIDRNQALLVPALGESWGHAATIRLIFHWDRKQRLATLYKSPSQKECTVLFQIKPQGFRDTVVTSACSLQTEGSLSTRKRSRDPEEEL

Variants of: B1
Conditions: with xrcc3_human XRCC3, O43542

effect of a mutation on the interaction | Variant
decreasing interaction | L939W

Variants of: B2
Conditions: with rad51_human RAD51, Q06609
rad51_human RAD51, Q06609, sequence (Q06609 whole entry): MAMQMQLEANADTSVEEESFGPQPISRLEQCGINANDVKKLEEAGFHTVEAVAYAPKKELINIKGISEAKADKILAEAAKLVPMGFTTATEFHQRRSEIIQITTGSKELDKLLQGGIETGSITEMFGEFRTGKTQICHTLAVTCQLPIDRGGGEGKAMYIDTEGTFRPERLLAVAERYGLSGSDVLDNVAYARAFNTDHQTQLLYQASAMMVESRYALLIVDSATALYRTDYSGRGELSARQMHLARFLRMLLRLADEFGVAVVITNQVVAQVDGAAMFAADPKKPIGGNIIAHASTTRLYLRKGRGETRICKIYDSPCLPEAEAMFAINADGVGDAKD

effect of a mutation on the interaction | Variant
decreasing interaction | T1030I
decreasing interaction | L939W

Variants of: B3
Conditions: with ra51c_human RAD51C

effect of a mutation on the interaction | Variant
decreasing interaction | T1030I
